Data from patent US20080305504.

Key:
[1] = system: T1, fluorogenic composition Cy5-SEQ. ID. NO.: 1-Cy7Q
T1 sequence: KIIDEDLNSRALG

[2] = system: T2, hC3 peptide modified with Gly attached to a Cy5 dye at the N terminus
T2 sequence: KIIDEDLNSRALG

Substance: C3 convertase (in human plasma)
- fluorescence intensity (excitation 623 nm, emission 676 nm), latex-activated plasma against plasma alone after subtracting the PBS control [1]: the signal enhancement due to Latex activation of complement was >100%
- fluorescence intensity (excitation 623 nm, emission 676 nm), plasma incubated on latex coated polystyrene against plasma alone [1]: showed >50% enhancement in signal over the plasma alone sample
- cleavage of the Cy5-labelled peptide in human plasma in a Latex plate, by reverse phase HPLC at 670 nm [2]: A new peak was observed in addition to the original peak. The new peak represents the cleavage product.
